This test addresses T1, rhB7-H6 biotinylated Fc fusion protein (human, UniProt Q68D85 25-262, biotin).
T1 construct: B7-H6 (natural cytotoxicity triggering receptor 3 ligand 1), human; supplier named under library sorting; the BLI methods say only 'B7-H6'; source: bought: R&D Systems
T1 sequence (looked up): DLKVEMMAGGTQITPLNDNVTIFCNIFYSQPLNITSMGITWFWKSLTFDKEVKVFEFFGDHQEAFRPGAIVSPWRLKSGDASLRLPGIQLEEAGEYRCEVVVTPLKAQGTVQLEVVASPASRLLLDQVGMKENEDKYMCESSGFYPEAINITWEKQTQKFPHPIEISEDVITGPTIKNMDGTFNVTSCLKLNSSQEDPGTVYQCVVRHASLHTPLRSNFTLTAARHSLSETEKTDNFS
As to the kind of experiment: BLI; competition/epitope binning: antibodies coupled on activated ARG2G biosensors, first association with NKp30 3 min, second association 3 min with B7-H6 or the other NKp30 binders; both orientations, 25 C. The following applies: both partners purified. In general terms: BLI is a label-free optical method that tracks binding on a fibre tip over time.

B1: Recombinant human His-tagged ECD of NKp30 (receptor, UniProt O14931 19-135, looked up)
chain: LWVSQPPEIRTLEGSSAFLPCSFNASQGRLAIGSVTWFRDEVVPGKEVRNGTPEFRGRLAPLASSRFLHDHQAELHIRDVRGHDASIYVCRVEVLGLGVGTGNGTRLVVEKEHPQLG
notes: NKp30 (natural cytotoxicity triggering receptor 3), human, extracellular domain; supplier named under library sorting; also called rhNKp30; NKp30 His-tagged protein; source: bought: ACROBiosystems
Take B1: the binding result is “binds”.
